Assay results reported in PMC10180240, “Semi-Rational Design of L-Isoleucine Dioxygenase Generated Its Activity for Aromatic Amino Acid Hydroxylation” (Molecules, 2023).

Tests used:
[1] = test system: T1, N[C@@H](CCc1ccccc1)C(=O)O; test: succinate release, succinic acid assay kit; Michaelis-Menten fit; format: biochemical, Bacillus thuringiensis; details: 10 mM alpha-KG, 0.5 mM FeSO4, 10 mM ascorbic acid, 50 mM Bis-Tris pH 6.0, 25 °C
T1 construct: full-length ido (240 aa without tag) in pET-28a(+) NcoI/SalI, expressed in E. coli BL21(DE3), Ni column
Text: (§1) succinate release, succinic acid assay kit; Michaelis-Menten fit on L-isoleucine dioxygenase (IDO)

N[C@@H](Cc1ccccc1)C(=O)O = test system: T2, N[C@@H](Cc1ccccc1)C(=O)O; test: as above; format: biochemical, Bacillus thuringiensis; details: 10 mM alpha-KG, 0.5 mM FeSO4, 10 mM ascorbic acid, 50 mM Bis-Tris pH 6.0, 25 °C
T2 construct: full-length ido (240 aa without tag) in pET-28a(+) NcoI/SalI, expressed in E. coli BL21(DE3), Ni column
Text: as §1

Question: Which Km [1] does the source give for “L-isoleucine dioxygenase (IDO) (Bacillus thuringiensis; S153A)” here?
Answer: 20 ± 0 µM

Question: What about the Vmax [1] of the same substance?
Answer: 0.09 µmol/min/mg

Question: What about the kcat [1] of the same substance?
Answer: 0.05 s⁻¹

Question: And the kcat/Km [1]?
Answer: 2500 ± 40 M⁻¹ s⁻¹

Question: And the Km (N[C@@H](Cc1ccccc1)C(=O)O)?
Answer: 20 ± 0 µM

Question: And the Vmax (N[C@@H](Cc1ccccc1)C(=O)O)?
Answer: 0.05 µmol/min/mg

Question: And the kcat (N[C@@H](Cc1ccccc1)C(=O)O)?
Answer: 0.03 s⁻¹

Question: What about the kcat/Km (N[C@@H](Cc1ccccc1)C(=O)O) of the same substance?
Answer: 1500 ± 50 M⁻¹ s⁻¹

Question: How did the Km [1] turn out when “L-isoleucine dioxygenase (IDO) (Bacillus thuringiensis; S153Q)” was run?
Answer: 40 ± 10 µM

Question: And the Vmax [1]?
Answer: 0.21 µmol/min/mg

Question: And the kcat [1]?
Answer: 0.14 ± 0.01 s⁻¹

Question: And the kcat/Km [1]?
Answer: 3500 ± 100 M⁻¹ s⁻¹

Question: “L-isoleucine dioxygenase (IDO) (Bacillus thuringiensis; S153Y)” was tested. Which Km [1] did it give?
Answer: 20 ± 0 µM

Question: And the Vmax [1]?
Answer: 0.08 µmol/min/mg

Question: What about the kcat [1] of the same substance?
Answer: 0.03 s⁻¹

Question: What about the kcat/Km [1] of the same substance?
Answer: 1500 ± 40 M⁻¹ s⁻¹

Question: Which results are given for “L-isoleucine dioxygenase (IDO) (Bacillus thuringiensis; Y143D)”?
Answer: Km (N[C@@H](Cc1ccccc1)C(=O)O): 40 ± 0 µM; Vmax (N[C@@H](Cc1ccccc1)C(=O)O): 0.15 µmol/min/mg; kcat (N[C@@H](Cc1ccccc1)C(=O)O): 0.08 s⁻¹; kcat/Km (N[C@@H](Cc1ccccc1)C(=O)O): 2000 ± 10 M⁻¹ s⁻¹

Question: For “L-isoleucine dioxygenase (IDO) (Bacillus thuringiensis; Y143I)”, which Km [1] is on record?
Answer: 20 ± 0 µM

Question: What about the Vmax [1] of the same substance?
Answer: 0.08 µmol/min/mg

Question: What about the kcat [1] of the same substance?
Answer: 0.04 s⁻¹

Question: And the kcat/Km [1]?
Answer: 2000 ± 80 M⁻¹ s⁻¹

Question: And the Km (N[C@@H](Cc1ccccc1)C(=O)O)?
Answer: 30 ± 0 µM

Question: What about the Vmax (N[C@@H](Cc1ccccc1)C(=O)O) of the same substance?
Answer: 0.1 µmol/min/mg

Question: And the kcat (N[C@@H](Cc1ccccc1)C(=O)O)?
Answer: 0.04 s⁻¹

Question: And the kcat/Km (N[C@@H](Cc1ccccc1)C(=O)O)?
Answer: 1330 ± 40 M⁻¹ s⁻¹
